The values that follow come from patent US20080026996A1, “Selective Vpac2 Receptor Reptide Agonists” (ELI LILLY AND COMPANY, priority 2004, published 2008).

For this assay, the target named is T1, human VPAC2 receptor (human, UniProt P41587 24-438).
T1 sequence (looked up): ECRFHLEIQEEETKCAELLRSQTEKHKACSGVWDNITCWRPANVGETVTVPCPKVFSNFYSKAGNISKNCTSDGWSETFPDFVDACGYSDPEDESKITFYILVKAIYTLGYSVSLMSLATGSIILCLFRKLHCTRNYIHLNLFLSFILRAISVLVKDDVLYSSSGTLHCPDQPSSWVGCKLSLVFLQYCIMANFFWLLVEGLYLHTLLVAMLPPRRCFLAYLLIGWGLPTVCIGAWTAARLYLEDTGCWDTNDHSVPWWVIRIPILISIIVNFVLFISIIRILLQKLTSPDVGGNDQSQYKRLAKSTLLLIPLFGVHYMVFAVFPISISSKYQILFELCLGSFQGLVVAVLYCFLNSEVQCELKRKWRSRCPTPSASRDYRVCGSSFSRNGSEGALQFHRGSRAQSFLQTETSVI
As to the kind of experiment: cell-based or functional assay.

Where no end group is shown, it is not given here. [ ]: non-standard residue; d: D form. The star is where a group is joined. Orn = NCCC[C@H](N)C(=O)O; Hexanoyl = CCCCCC(=O)*; Aib = CC(C)(N)C(=O)O

B1: P82 (peptide)
peptide: HSDAVFTDNYTRLRKQVAAKKYLQSIKRGGPSSGAPPPS
As for B1, the “EC50 cAMP, Alpha Screen” value was 15.2 nM.

B2: P354 (peptide)
peptide: HSDAVFTDNYTRLRXQVAAXKYLQSIKXGGPSSGAPPPS
modifications: N-terminal hexanoyl (C6); Aib at 15, 20; hR at 28
With B2, the “EC50 cAMP, Alpha Screen” value was determined as 0.14 nM.

B3: P271 (peptide)
peptide: Hexanoyl-HSDAVFTDNYTRLRKQVAAKKYLQSIKNGRPSSGAPPPS
Take B3: the “EC50 cAMP, Alpha Screen” value is 0.12 nM.

B4: P92 (peptide)
peptide: HSDAVFTDNYTRLRKQVAAKKYLQSIKNGRPSSGAPPPS
With B4, the “EC50 cAMP, Alpha Screen” value worked out at 10.2 nM and the “EC50 cAMP, DiscoveRx” value was 8.2 nM.

B5: P85 (peptide)
peptide: HSDAVFTDNYTRLRKQVAAKKYLQSIKKGGPSSGAPPPS
As for B5, the “EC50 cAMP, Alpha Screen” value is 22.2 nM.

B6: P296 (peptide)
peptide: Hexanoyl-HSDAVFTDNYTRL[Aib]KQVAA[Aib]KYLQSIKQGGPSSGAPPPS
modifications: ends and bridges not checked
Consider B6, for which the “EC50 cAMP, Alpha Screen” value is 6.69 nM.

B7: P265 (peptide)
peptide: Hexanoyl-HSDAVFTDNYTRLR[Aib]QVAALKYLQSIKNKRYGGPSSGAPPPS
modifications: ends and bridges not checked
Consider B7, for which the “EC50 cAMP, Alpha Screen” value turned out to be 0.21 nM.

B8: P319 (peptide)
peptide: Hexanoyl-HSDAVFTDNYTRL[Orn][Aib]QVAA[Aib]KYLQSIKNKRYGGPSSGAPPPS
modifications: ends and bridges not checked
Take B8: the “EC50 cAMP, Alpha Screen” value was determined as 0.26 nM.

B9: P364 (peptide)
peptide: HSDAVFTDNYTXLRXQLAAXKYLQSIXNXGGPSSGAPPPS
modifications: N-terminal hexanoyl (C6); Orn at 12, 27, 29; Aib at 15, 20
Regarding B9, the “EC50 cAMP, Alpha Screen” value was 0.11 nM.

B10: P365 (peptide)
peptide: HSDAVFTDNYTXLRXQIAAXKYLQSIXNXGGPSSGAPPPS
modifications: N-terminal hexanoyl (C6); Orn at 12, 27, 29; Aib at 15, 20
For B10, the “EC50 cAMP, Alpha Screen” value was 0.13 nM.

B11: P316 (peptide)
peptide: HSDAVFTDNYTRLXXQVAAXKYLQSIKNKRYGGPSSGAPPPS
modifications: N-terminal hexanoyl (C6); hR at 14; Aib at 15, 20
With B11, the “EC50 cAMP, Alpha Screen” value amounted to 0.3 nM.

B12: P320 (peptide)
peptide: HSDAVFTDNYTRLXXQVAAXKYLQSIKNKRYGGPSSGAPPPS
modifications: N-terminal hexanoyl (C6); Cit at 14; Aib at 15, 20
Turning to B12, the “EC50 cAMP, Alpha Screen” value is 0.49 nM.

B13: P366 (peptide)
peptide: Hexanoyl-HSDAVFTDNYTALR[Aib]QVAA[Aib]KYLQSI[Orn]N[Orn]GGPSSGAPPPS
Regarding B13, the “EC50 cAMP, Alpha Screen” value worked out at 2.6 nM.

B14: P350 (peptide)
peptide: Hexanoyl-HSDAVFTDNYTRLR[Aib]QVAA[Aib]KYLQSIKPKGGPSSGAPPPS
modifications: ends and bridges not checked
On to B14, for which the “EC50 cAMP, Alpha Screen” value is 0.13 nM.

B15: P307 (peptide)
peptide: Hexanoyl-HSDAVFTDNYTRLR[Orn]QVAAKKYLQSIKNKRYGGPSSGAPPPS
modifications: ends and bridges not checked
Regarding B15, the “EC50 cAMP, Alpha Screen” value turned out to be 0.32 nM.

B16: P301 (peptide)
peptide: Hexanoyl-HSDAVFTDNYTRLA[Aib]QVAA[Aib]KYLQSIKNKRYGGPSSGAPPPS
modifications: ends and bridges not checked
Turning to B16, the “EC50 cAMP, Alpha Screen” value was 0.89 nM.

B17: P324 (peptide)
peptide: Hexanoyl-HSDAVFTDNYTRLR[Aib]QAAA[Aib]KYLQSIKNKRYGGPSSGAPPPS
modifications: ends and bridges not checked
For the molecule B17, the “EC50 cAMP, Alpha Screen” value turned out to be 0.23 nM.

B18: P341 (peptide)
peptide: Hexanoyl-HSDAVFTDNYTRLR[Aib]QVAA[Aib]AYLQSIKNKRYGGPSSGAPPPS
modifications: ends and bridges not checked
B18: the “EC50 cAMP, Alpha Screen” value was determined as 0.38 nM.

B19: P317 (peptide)
peptide: Hexanoyl-HSDAVFTDNYTRLL[Aib]QVAA[Aib]KYLQSIKNKRYGGPSSGAPPPS
modifications: ends and bridges not checked
For the molecule B19, the “EC50 cAMP, Alpha Screen” value was 0.36 nM.

B20: P302 (peptide)
peptide: Hexanoyl-HSDAVFTDNYTRLQ[Aib]QVAA[Aib]KYLQSIKNKRYGGPSSGAPPPS
modifications: ends and bridges not checked
Regarding B20, the “EC50 cAMP, Alpha Screen” value stood at 0.45 nM.

B21: P293 (peptide)
peptide: Hexanoyl-HSDAVFTDNYTRL[Aib]KQVAA[Aib]KYLQSIKQKGGPSSGAPPPS
modifications: ends and bridges not checked
For B21, the “EC50 cAMP, Alpha Screen” value was determined as 1.89 nM.

B22: P294 (peptide)
peptide: Hexanoyl-HSDAVFTDNYTRLR[Aib]QVAA[Aib]KYLQSIKQKGGPSSGAPPPS
modifications: ends and bridges not checked
For B22, the “EC50 cAMP, Alpha Screen” value turned out to be 0.24 nM.

B23: P345 (peptide)
peptide: Hexanoyl-HSDAVFTDNYT[Aib]LR[Aib]QVAA[Aib]KYLQSIKNKRYGGPSSGAPPPS
modifications: ends and bridges not checked
On to B23, for which the “EC50 cAMP, Alpha Screen” value was determined as 1.17 nM.

B24: P351 (peptide)
peptide: Hexanoyl-HSDAVFTDNYTRLR[Aib]QVAA[Aib]KYLQSIKKGGPSSGAPPPS
modifications: ends and bridges not checked
As for B24, the “EC50 cAMP, Alpha Screen” value was found to be 0.11 nM.

B25: P355 (peptide)
peptide: Hexanoyl-HSDAVFTDNYTRLR[Aib]QVAA[Aib]KYLQSIK[Aib]GGPSSGAPPPS
modifications: ends and bridges not checked
As to B25, the “EC50 cAMP, Alpha Screen” value was 0.1 nM.

B26: P298 (peptide)
peptide: Hexanoyl-HSDAVFTDNYTRLR[Aib]QVAAK[Aib]YLQSIKQGGPSSGAPPPS
modifications: ends and bridges not checked
Turning to B26, the “EC50 cAMP, Alpha Screen” value turned out to be 0.5 nM.

B27: P295 (peptide)
peptide: Hexanoyl-HSDAVFTDNYTRLR[Aib]QVAAK[Aib]YLQSIKQKGGPSSGAPPPS
modifications: ends and bridges not checked
Consider B27, for which the “EC50 cAMP, Alpha Screen” value came to 0.39 nM.

B28: P349 (peptide)
peptide: Hexanoyl-HSDAVFTDNYTRLR[Aib]QVAA[Aib]KYLQSIK[Aib]KGGPSSGAPPPS
modifications: ends and bridges not checked
As for B28, the “EC50 cAMP, Alpha Screen” value was found to be 0.08 nM.

B29: P297 (peptide)
peptide: Hexanoyl-HSDAVFTDNYTRLR[Aib]QVAA[Aib]KYLQSIKQGGPSSGAPPPS
modifications: ends and bridges not checked
With B29, the “EC50 cAMP, Alpha Screen” value amounted to 0.36 nM.

B30: P353 (peptide)
peptide: Hexanoyl-HSDAVFTDNYTRLR[Aib]QVAA[Aib]KYLQSI[dK][dK]GGPSSGAPPPS
modifications: ends and bridges not checked
Turning to B30, the “EC50 cAMP, Alpha Screen” value came to 0.18 nM.
